Reference: the supplement of paper PMC12042874
± gives the uncertainty stated by the source.

Assay: amyloid nucleation score (Sup35N fusion, yeast selection) (log enrichment); library NNK2; higher = more nucleation; inactive = no reads after selection
Method in brief: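 On medium lacking adenine and uracil, psi-negative yeast expressing peptides of 20 random codons fused to Sup35N were grown 7 days at 30°C after a 24-hour induction with 100 μM copper sulfate. Illumina sequencing of input and output plasmid inserts gave the reads, and sequences under 100 input reads were excluded. The nucleation score is the DiMSum log enrichment of output over input reads, centred on the mode score of non-aggregating sequences.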

Question: Which amyloid nucleation score does the source give for WKSLGNSAVVIRLAS here?
Answer: Its amyloid nucleation score is -0.453 ± 1.1.

Question: For WKTWSPKYWGSFVR, which amyloid nucleation score is on record?
Answer: The amyloid nucleation score was -0.283 ± 0.46.

Question: Which amyloid nucleation score does the source give for WKVRISVFMLEAL here?
Answer: Its amyloid nucleation score is 2.77 ± 0.075.

Question: Which amyloid nucleation score does the source give for WLFSVSISGREDMMWSGLLE here?
Answer: Its amyloid nucleation score is 0.061 ± 0.4.

Question: With WLGIAAM as the substance, how does the amyloid nucleation score read?
Answer: The amyloid nucleation score was 1.15 ± 0.43.

Question: With WLIKKASRYSN as the substance, how does the amyloid nucleation score read?
Answer: The amyloid nucleation score was -0.608 ± 1.1.

Question: With WLLFMS as the substance, how does the amyloid nucleation score read?
Answer: The amyloid nucleation score was -0.353 ± 0.54.

Question: Which amyloid nucleation score does the source give for WLLILLDISTSDFLQCWIGM here?
Answer: The amyloid nucleation score was -0.037 ± 0.65.

Question: With WLMCMPILRSCWMSSG as the substance, how does the amyloid nucleation score read?
Answer: The amyloid nucleation score was 0.749 ± 0.22.

Question: With WLMKINRT as the substance, how does the amyloid nucleation score read?
Answer: Its amyloid nucleation score is 0.129 ± 0.26.

Question: With WLQSETIHDVRSLRWVSIKC as the substance, how does the amyloid nucleation score read?
Answer: Its amyloid nucleation score is 0.043 ± 0.74.

Question: Which amyloid nucleation score does the source give for WLYSIVCCDRKQSRSGMCDL here?
Answer: The amyloid nucleation score was 4.96 ± 0.069.

Question: For WMIIVA, which amyloid nucleation score is on record?
Answer: The amyloid nucleation score was 0.582 ± 0.54.

Question: Which amyloid nucleation score does the source give for WMKFTWWRHEYYVVS here?
Answer: The amyloid nucleation score was -0.195 ± 0.79.

Question: Which amyloid nucleation score does the source give for WMSFTHLLNTIAVMSYLTVL here?
Answer: Its amyloid nucleation score is -0.249 ± 0.25.

Question: With WNFFLGMAIMGLRRSCL as the substance, how does the amyloid nucleation score read?
Answer: The amyloid nucleation score was 4.1 ± 0.068.

Question: With WNGGQWGAWPLCSNVCAMRS as the substance, how does the amyloid nucleation score read?
Answer: Its amyloid nucleation score is 7.7 ± 0.062.

Question: With WNGQDGQGLVGLKRP as the substance, how does the amyloid nucleation score read?
Answer: Its amyloid nucleation score is 0.344 ± 0.23.

Question: For WNIWFTVCYCKHLSKSKGSD, which amyloid nucleation score is on record?
Answer: The amyloid nucleation score was 8.667 ± 0.033.

Question: With WNLRMYLNMGYMVLFNIQF as the substance, how does the amyloid nucleation score read?
Answer: The amyloid nucleation score was 3.64 ± 0.099.

Question: Which amyloid nucleation score does the source give for WNLYSLSN here?
Answer: Its amyloid nucleation score is “inactive”.

Question: For WPGLCYCGMPVRMNWLLVTP, which amyloid nucleation score is on record?
Answer: The amyloid nucleation score was -0.661 ± 1.1.

Question: With WPIMMYGKFVFDRHIHCGAL as the substance, how does the amyloid nucleation score read?
Answer: The amyloid nucleation score was 0.141 ± 0.41.

Question: For WQGEPHPIHFMLSFVLMGW, which amyloid nucleation score is on record?
Answer: Its amyloid nucleation score is 0.957 ± 0.21.

Question: Which amyloid nucleation score does the source give for WQNETRMACRWFRRMLSFCI here?
Answer: The amyloid nucleation score was 1.42 ± 0.4.

Question: For WQTEFIYSQVSTVGYKRLEG, which amyloid nucleation score is on record?
Answer: The amyloid nucleation score was 2.38 ± 0.089.

Question: With WRLCVWPRCGTAKLS as the substance, how does the amyloid nucleation score read?
Answer: The amyloid nucleation score was 0.24 ± 0.32.

Question: With WRSDLAVGFYKEMHSRRING as the substance, how does the amyloid nucleation score read?
Answer: Its amyloid nucleation score is -0.992 ± 0.36.

Question: With WRYDSWFKRKHCMLLYICQG as the substance, how does the amyloid nucleation score read?
Answer: Its amyloid nucleation score is 0.003 ± 0.43.

Question: With WRYSRKMDRPFYRAMCYVNI as the substance, how does the amyloid nucleation score read?
Answer: The amyloid nucleation score was 1.68 ± 0.1.

Question: For WSDLFRRTMCGVW, which amyloid nucleation score is on record?
Answer: The amyloid nucleation score was 0.624 ± 0.66.

Question: Which amyloid nucleation score does the source give for WSGDFLRYHCHAGDRCMMTM here?
Answer: Its amyloid nucleation score is -0.78 ± 0.63.

Question: Which amyloid nucleation score does the source give for WSLSYYISVDEDYGSRGVTM here?
Answer: The amyloid nucleation score was -1.6 ± 1.

Question: With WSMVQLPFSFIYPRGYLNMG as the substance, how does the amyloid nucleation score read?
Answer: Its amyloid nucleation score is -0.615 ± 0.64.

Question: Which amyloid nucleation score does the source give for WSRKECG here?
Answer: Its amyloid nucleation score is 0.408 ± 0.4.

Question: For WSRSNLCTFSFLGNIISPDR, which amyloid nucleation score is on record?
Answer: The amyloid nucleation score was 4.02 ± 0.073.

Question: With WSWRGS as the substance, how does the amyloid nucleation score read?
Answer: The amyloid nucleation score was 0.629 ± 0.52.

Question: With WTFLIIIWYLDIVV as the substance, how does the amyloid nucleation score read?
Answer: Its amyloid nucleation score is -1.76 ± 0.48.

Question: With WTQGFYTFSDHAPLVIILLE as the substance, how does the amyloid nucleation score read?
Answer: The amyloid nucleation score was “inactive”.

Question: Which amyloid nucleation score does the source give for WTTLGGPVGREENGRRQAEG here?
Answer: Its amyloid nucleation score is 1.17 ± 0.23.

Question: For WTWGALDRRSGLFEVGGMYF, which amyloid nucleation score is on record?
Answer: Its amyloid nucleation score is 0.449 ± 0.47.

Question: With WVDGICCPPRSG as the substance, how does the amyloid nucleation score read?
Answer: Its amyloid nucleation score is 0.292 ± 0.29.

Question: With WVFRK as the substance, how does the amyloid nucleation score read?
Answer: The amyloid nucleation score was -0.11 ± 0.76.

Question: For WVGSCKNVSFMQVIVWIVRL, which amyloid nucleation score is on record?
Answer: The amyloid nucleation score was -0.121 ± 1.1.

Question: Which amyloid nucleation score does the source give for WVLPSLKGCTAVSYIFVFLY here?
Answer: Its amyloid nucleation score is 0.398 ± 0.27.

Question: With WVNSKLGLKVSLIEAGVEVS as the substance, how does the amyloid nucleation score read?
Answer: The amyloid nucleation score was -0.116 ± 0.43.

Question: For WVTGPSRPD, which amyloid nucleation score is on record?
Answer: Its amyloid nucleation score is 0.387 ± 0.8.

Question: With WVVHLSSGIRNF as the substance, how does the amyloid nucleation score read?
Answer: Its amyloid nucleation score is “inactive”.

Question: For WVVNRTQGYGRLSSGDEEVP, which amyloid nucleation score is on record?
Answer: Its amyloid nucleation score is 1.35 ± 0.37.

Question: Which amyloid nucleation score does the source give for WVWGIGSFRRSFQCWWWFSN here?
Answer: Its amyloid nucleation score is -1.86 ± 0.73.

Question: With WWFTAIGCSVGRLGSFNR as the substance, how does the amyloid nucleation score read?
Answer: The amyloid nucleation score was 2.06 ± 0.16.

Question: For WWVKTVLFKK, which amyloid nucleation score is on record?
Answer: The amyloid nucleation score was -0.947 ± 0.78.

Question: For WWYPSGLDCFVVSFFRCHCV, which amyloid nucleation score is on record?
Answer: Its amyloid nucleation score is -0.107 ± 1.

Question: With WYEYCFCGVMLYRTGDCTRR as the substance, how does the amyloid nucleation score read?
Answer: The amyloid nucleation score was 3.96 ± 0.086.

Question: Which amyloid nucleation score does the source give for WYYRLLWYVLSQGRMRGNVQ here?
Answer: The amyloid nucleation score was -0.011 ± 0.41.

Question: Which amyloid nucleation score does the source give for YADPFSERYNFSALVFPFNI here?
Answer: Its amyloid nucleation score is “inactive”.

Question: For YAIGDNAA, which amyloid nucleation score is on record?
Answer: The amyloid nucleation score was 0.111 ± 0.32.

Question: Which amyloid nucleation score does the source give for YAVVFHVPLLV here?
Answer: The amyloid nucleation score was 5.11 ± 0.079.

Question: For YCDCPVNICRRFPGHEHRGV, which amyloid nucleation score is on record?
Answer: The amyloid nucleation score was “inactive”.

Question: Which amyloid nucleation score does the source give for YCGFVFPAWGDLLTNGSPAA here?
Answer: The amyloid nucleation score was 0.092 ± 0.29.

Question: Which amyloid nucleation score does the source give for YCLVSIKMCYGYVVGSLVGW here?
Answer: Its amyloid nucleation score is 2.63 ± 0.068.

Question: With YDERTWGTECMCTSCSCADK as the substance, how does the amyloid nucleation score read?
Answer: Its amyloid nucleation score is 1.24 ± 0.28.

Question: With YDLSASLVFGMFVNDLRRSR as the substance, how does the amyloid nucleation score read?
Answer: The amyloid nucleation score was 5.68 ± 0.096.

Question: With YDRIGCRASTSLSAYPLATA as the substance, how does the amyloid nucleation score read?
Answer: Its amyloid nucleation score is 2.58 ± 0.076.

Question: With YDYFTLSTTGLWLAIYMWWC as the substance, how does the amyloid nucleation score read?
Answer: The amyloid nucleation score was 0.287 ± 0.56.

Question: With YEHLDIGNHKLGRCNRNFIA as the substance, how does the amyloid nucleation score read?
Answer: The amyloid nucleation score was -0.191 ± 1.1.

Question: With YEMFHAILCY as the substance, how does the amyloid nucleation score read?
Answer: Its amyloid nucleation score is -0.101 ± 0.8.

Question: Which amyloid nucleation score does the source give for YEPCLRSQNVSS here?
Answer: The amyloid nucleation score was 0.112 ± 0.79.

Question: For YEVGHPYFDDNCRICSFWWK, which amyloid nucleation score is on record?
Answer: Its amyloid nucleation score is 1.82 ± 0.12.

Question: Which amyloid nucleation score does the source give for YEYVCVLAVACITGRFTLHW here?
Answer: Its amyloid nucleation score is -0.757 ± 0.36.

Question: Which amyloid nucleation score does the source give for YFCERWMLSCIGGLFVNFLY here?
Answer: Its amyloid nucleation score is 0.168 ± 0.15.

Question: With YFDGVIWLLTYRIFMANDYS as the substance, how does the amyloid nucleation score read?
Answer: Its amyloid nucleation score is “inactive”.

Question: For YFELKLKNARVGRFIDWRAT, which amyloid nucleation score is on record?
Answer: The amyloid nucleation score was 1.77 ± 0.27.

Question: Which amyloid nucleation score does the source give for YFFITYVPSEAGYRREKWFG here?
Answer: The amyloid nucleation score was 7.34 ± 0.082.

Question: For YFFKRIW, which amyloid nucleation score is on record?
Answer: Its amyloid nucleation score is “inactive”.

Question: With YFFRMSWPLGPMTSFRTLYL as the substance, how does the amyloid nucleation score read?
Answer: The amyloid nucleation score was -0.608 ± 0.4.

Question: With YFGVLFPVMNWQLSWKNIYW as the substance, how does the amyloid nucleation score read?
Answer: Its amyloid nucleation score is “inactive”.

Question: For YFKDLKADVRVKMTKLEWPQ, which amyloid nucleation score is on record?
Answer: Its amyloid nucleation score is 2.67 ± 0.12.

Question: With YFKTWAICHWFCNWRRLWMN as the substance, how does the amyloid nucleation score read?
Answer: The amyloid nucleation score was 0.305 ± 1.

Question: For YFLLVGAARIRRVKLLQ, which amyloid nucleation score is on record?
Answer: Its amyloid nucleation score is -0.22 ± 0.62.

Question: With YFLRYSS as the substance, how does the amyloid nucleation score read?
Answer: The amyloid nucleation score was “inactive”.

Question: For YFLSGRVSEGSAITIRELSP, which amyloid nucleation score is on record?
Answer: Its amyloid nucleation score is 2.34 ± 0.091.

Question: For YFNGERFTRFISMEE, which amyloid nucleation score is on record?
Answer: The amyloid nucleation score was -1.21 ± 1.1.

Question: With YFNMSLTIPNI as the substance, how does the amyloid nucleation score read?
Answer: The amyloid nucleation score was 0.566 ± 0.47.

Question: For YFPPGDA, which amyloid nucleation score is on record?
Answer: The amyloid nucleation score was -0.47 ± 0.39.

Question: Which amyloid nucleation score does the source give for YFPVIRRDAAFYPFSAPYFN here?
Answer: Its amyloid nucleation score is -2.05 ± 0.77.
